Experimental data as given in PMC7402102.

Columns and labels:
[1] = system: CC(=O)CC(=O)O; experiment: purified protein; settings: 1 mM succinyl-CoA, pH 8.6, 37 °C, 15 mM MgCl2
[2] = system: CC(C)(COP(=O)(O)OP(=O)(O)OC[C@H]1O[C@@H](n2cnc3c(N)ncnc32)[C@H](O)[C@@H]1OP(=O)(O)O)[C@@H](O)C(=O)NCCC(=O)NCCSC(=O)CCC(=O)O; experiment: purified protein; settings: acetoacetate co-substrate, pH 8.6, 37 °C, 15 mM MgCl2

For HsSCOT (Homo sapiens), the Km [1] was 765 µM, the kcat [1] was 105 s⁻¹ and the Km [2] was 971 µM. It also gave a kcat [2] of 190 s⁻¹.
